# Source: article PMC3102678
# Molecular target: F pilus (conjugative pilus encoded by the F′ plasmid) on E. coli TOP10F′ (F+) cells (E. coli (endogenous on TOP10F′, F′ plasmid)) (UniProt P04737)
# Chain of UniProt P04737 (P04737 52-121): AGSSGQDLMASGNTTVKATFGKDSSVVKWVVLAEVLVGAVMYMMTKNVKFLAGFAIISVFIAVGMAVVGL
substance,measurement,value
g3p on replicating phage M13-km^R (from UniProt P69168 19-424) (natural protein),"inhibition of F-mediated conjugation by replicating phage M13-km^R (no pre-infection), binding model applied naively without phage replication and infection: apparent Kd",2.4 pM
